Reference: patent US9951128B2, “Caninized anti-NGF antibodies and methods thereof” (ZOETIS SERVICES LLC, priority 2012, dated 2018)
Read-outs that look alike come from different tables or passages of the source. Values belong to the molecule of their own block, whether it stands above or below them.

Key:
[1] = test system: NGF binding to receptor trkA; test: Functional in vitro assay: inhibition of NGF binding to TrkA (pre-incubated mAb+NGF); assay type: biochemical
Procedure: FIGS. 12A and B is a graphical representation of affinity data of caninized mAb (left). (Right) trkA inhibition data with pre-incubated mAb+NGF. (Bottom)
(§1) Affinities of each caninized anti-NGF antibody to canine NGF were measured using SPR (Surface Plasmon Resonance). In addition, a functional in vitro assay was developed to measure inhibition constants for the mAbs ability to inhibit binding of NGF to TrkA. […] Some affinity was lost, however, upon caninization to mAb CAN-N2G9-VH, CAN-E3M. Due to this loss of affinity, the caninized mAb was affinity matured (see Example 5 for details) to regain potency. Included in FIGS. 12 and 13 are the results of the affinity matured products, SSM57 (SEQ ID NO. 27 “CAN-SSM57-VH”, SEQ ID NO. 26 “CAN-SSME3M-VL”), SSM58 (SEQ ID NO. 28 CAN-SSM58-VH, SEQ ID NO. 26 “CAN-SSME3M-VL”), and SSM66 (SEQ ID NO.29 CAN-SSM66, SEQ ID NO. 26 CAN-SSME3M-VL) on each SPR assay.

[2] = target: canine NGF; test: SPR (Biacore T100) binding of anti-NGF mAbs to canine NGF
Excerpt: As used herein, the term “affinity” refers to the strength of the binding of a single antigen-combining site with an antigenic determinant. Affinity depends on the closeness of stereochemical fit between antibody or antigen binding protein combining sites and antigen determinants, on the size of the area of contact between them, on the distribution of charged and hydrophobic groups, etc. Antibody affinity can be measured by equilibrium analysis or by the Surface Plasmon Resonance—“SPR” method (for example BIACORE™. The SPR method relies on the phenomenon of surface plasmon resonance (SPR), which occurs when surface plasmon waves are excited at a metal/liquid interface. Light is directed at, and reflected from, the side of the surface not in contact with sample, and SPR causes a reduction in the reflected light intensity at a specific combination of angle and wavelength. Bimolecular binding events cause changes in the refractive index at the surface layer, which are detected as changes in the SPR signal.
The generation of anti-drug antibodies (ADAs) can be associated with loss of efficacy for any biotherapeutic protein including monoclonal antibodies. Comprehensive evaluation of the literature has shown that speciation of monoclonal antibodies can reduce the propensity for mAbs to be immunogenic although examples of immunogenic fully human mAbs and non-immunogenic chimeric mAbs can be found. To help mitigate risks associated with ADA formation for the mouse anti-NGF, RN911, monoclonal antibody provided herein, a caninization strategy was employed. This caninization strategy is based on identifying the most appropriate canine germline antibody sequence for CDR grafting (FIG. 3). Following extensive analysis of all available canine germline sequences for both the heavy and light chains, germline candidates were selected on their homology to RN911, and the CDRs from RN911 were used to replace native canine CDRs. The objective was to retain high affinity and cell-based activity using fully canine frameworks to minimize the potential of immunogenicity in vivo. Caninized mAbs were optimized for mammalian expression, expressed and characterized for their ability to bind NGF via SPR. […] Only mAbs that retained both reliable expression levels and the ability to bind NGF following caninization were advanced for further characterization.
as §1
SPR on the supernatants were performed as an initial screen, good binders were purified, and pure mAb was again run via SPR to measure binding to canine NGF (TABLE 5). Constructs LTM109 and LTM135 were chosen to progress based on binding affinities.
Various KD's correspond to different sensors, surface density varies slightly.
Mutated antibodies were expressed in HEK293 cells and evaluated for binding affinities to canine NGF (results below; expression results in Tables 7-9).

[3] = test system: rat MIA model of osteoarthritis; test: Rat MIA osteoarthritis model, weight bearing test; assay type: in vivo, Rat Ola Wistar; conditions: dosed on study day 7 and study day 14
Procedure: Osteoarthritis (OA) is a degenerative joint disease characterized by joint pain and a progressive loss of articular cartilage. Intra-articular injection of MIA induces loss of articular cartilage with progression of subchondral bone lesions that mimic those of OA. This model offers a rapid and minimally invasive method to reproduce OA-like lesions in a rodent species.
Pain was assessed using weight bearing test for sustained pain and joint compression (Randall Selitto) test for mechanical hyperalgesia. See FIG. 17 for a schematic of the rat MIA procedure.
This training regime was required as it was anticipated that the level of variability within the experiment is relatively high. […]
Weight bearing deficits were measured in all rats on study day −1, this measurement served as a baseline. Weight bearing was then recorded on study days 9, 16, 21 and 28. […]
The weight bearing of each leg was measured separately by weight bearing apparatus (IITC, Series 8, Model 600®). This test quantifies the spontaneous postural changes reflecting spontaneous pain by independently measuring, on two separate sensors, the weight that the animal applies on each hind paw.
Results were calculated and represented as the percentage of weight that the animal leaned on the injected right leg or intact left leg from the total amount of leaned weight on the two hind legs. […]

[4] = test system: beagle (LPS-induced) synovitis pain model; test: Dog LPS-induced synovitis pain model, lameness by visual analogue scale; assay type: in vivo; conditions: synovitis induced 7 and 28 days post-dose
Procedure: PK/PD data were generated with RN911 in the target species in a synovitis efficacy study. In the synovitis pain model, transient inflammation of the synovial membrane in a single stifle is induced via intra-articular injection of bacterial lipopolysaccharide (LPS). Quantifiable lameness occurs within 2h of synovitis induction, peaks at 3-4h, is waning by 6h and is fully resolved after 24h. From an IACUC perspective, it is acceptable to induce synovitis on two separate occasions (i.e., once in each stifle), provided the lameness associated with the first synovitis induction has fully resolved. Therefore we designed a study in which synovitis was induced in the same beagle 3 days and 7 days after IV treatment (RN911 or PBS vehicle). After each synovitis induction, lameness was quantified using a visual analogue scale (VAS).
At this time, the free RN911 serum concentrations averaged 24400±3900 ng/mL (170±27 nM; FIG. 2).
Caninized mAb (CAN-SSME3M-VL, CAN-SSM57-HC) was tested in dog synovitis model at 5 mg/kg IV and 5 mg/kg SC. Results of study are shown in FIG. 14, inducing synovitis at 7 days and 28 days post-dose.

[5] = canine NGF, 1:1 Binding fit, Table 9

Sequence of canine NGF (as listed by the source): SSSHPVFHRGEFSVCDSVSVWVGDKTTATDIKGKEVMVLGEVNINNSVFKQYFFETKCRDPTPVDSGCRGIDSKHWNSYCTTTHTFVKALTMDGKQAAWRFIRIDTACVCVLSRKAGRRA
Sequence of NGF binding to receptor trkA (as listed by the source): as above

- Inhibition by mAbs of NGF binding to receptor trkA [1]: potent inhibition
- Kd ([2]; Dog NGF, Biacore T100, purified mAb, run 11/8 (different sensors), read-out: KD (M) 11/8): 3.35e-09 M
- Kd ([2]; Dog NGF, Biacore T100, purified mAb, run 11/22 (different sensors), read-out: KD (M) 11/22): 1.46e-09 M
- Kd ([2]; Dog NGF, Biacore T100, purified mAb, run 11/24 (different sensors), read-out: KD (M) 11/24): 2.35e-09 M
- Kd ([2]; Dog NGF, Biacore T100, purified mAb, run 11/29 (different sensors), read-out: KD (M) 11/29): 3.51e-09 M
- Binding of mAbs to NGF (FIGS. 12 and 13) ([2]; SPR): high affinity binding
- ka [2, 5]: 17200 M⁻¹ s⁻¹
- kd [2, 5]: 8.11e-05 s⁻¹
- Kd ([2]; canine NGF, 1:1 Binding fit, Table 9, read-out: KD): 4.7e-09 M
- Binding to canine NGF after caninization / framework substitution ([2]; expressed in HEK 293): retained NGF binding
B1: CanE3M 65112: caninized RN911 mAb: CAN-N2G9-VH (SEQ ID NO. 17), CAN-E3M-VL (SEQ ID NO. 16), CAN-65E-HC, CAN-KAPPA-LC (antibody, V domains shown)
VH: EVQLVESGGDLARPGGSLKLSCVVSGFSLIGYDINWVRQAPGKGLQWVTMIWGDGTTDYNSALKSRFTVSRDNAMNTVYLQMNSLRVEDTAVYYCARGGYYYGTSYYFDYWGQGTLVTVSS
VL: DIVMTQTPLSLSVSPGETASISCRASQDISNHLNWFRQKPGQSPQRLIYYISRFHSGVPDRFSGSGSGTDFTLRISRVEADDTGVYYCQQSKTLPYTFGAGTKLEIK
modifications: canine constant regions without entries; canine

- Binding affinities to canine NGF among SSM mutated antibodies [2]: highest affinities
B2: SSM57: affinity matured caninized mAb: CAN-SSM57-VH (SEQ ID NO. 27), CAN-SSME3M-VL (SEQ ID NO. 26) (antibody, V domains shown)
VH: EVQLVESGGDLARPGGSLKLSCVVSGFSLIQYDINWVRQAPGKGLQWVTMIWGDGTTDYNSALKSRFTVSRDNAMNTVYLQMNSLRVEDTAVYYCARGGYWYATSYYFDYWGQGTLVTVSS
VL: DIVMTQTPLSLSVSPGETASISCRASQSISNNLNWFRQKPGQSPQRLIYYISSFHSGVPDRFSGSGSGTDFTLRISRVEADDTGVYYCQQSHTLPYTFGAGTKLEIK
modifications: canine
- Analgesic effect in the rat MIA model of osteoarthritis [3]: demonstrated
- Efficacy in dog synovitis model ([4]; 5 mg/kg IV): showed efficacy
- Efficacy in dog synovitis model ([4]; 5 mg/kg SC): showed efficacy

- Binding affinities to canine NGF among SSM mutated antibodies [2]: highest affinities
B3: SSM58: affinity matured caninized mAb: CAN-SSM58-VH (SEQ ID NO. 28), CAN-SSME3M-VL (SEQ ID NO. 26) (antibody, V domains shown)
VH: EVQLVESGGDLARPGGSLKLSCVVSGFSLIEYDINWVRQAPGKGLQWVTMIWGDGTTDYNSALKSRFTVSRDNAMNTVYLQMNSLRVEDTAVYYCARGGYWYATSYYFDYWGQGTLVTVSS
VL: DIVMTQTPLSLSVSPGETASISCRASQSISNNLNWFRQKPGQSPQRLIYYISSFHSGVPDRFSGSGSGTDFTLRISRVEADDTGVYYCQQSHTLPYTFGAGTKLEIK
modifications: canine

- Binding affinities to canine NGF among SSM mutated antibodies [2]: highest affinities
B4: SSM66: affinity matured caninized mAb: CAN-SSM66-VH (SEQ ID NO. 29), CAN-SSME3M-VL (SEQ ID NO. 26) (antibody, V domains shown)
VH: EVQLVESGGDLARPGGSLKLSCVVSGFSLIEYDINWVRQAPGKGLQWVTMIWGTGTTDYNSALKSRFTVSRDNAMNTVYLQMNSLRVEDTAVYYCARGGYWYATSYYFDYWGQGTLVTVSS
VL: DIVMTQTPLSLSVSPGETASISCRASQSISNNLNWFRQKPGQSPQRLIYYISSFHSGVPDRFSGSGSGTDFTLRISRVEADDTGVYYCQQSHTLPYTFGAGTKLEIK
modifications: canine
